For the test, the target named is bovine serum albumin (Bos taurus, UniProt P02769). The experiment in a line: carbon nanotube field-effect transistor.
Sequence of bovine serum albumin (P02769 25-607): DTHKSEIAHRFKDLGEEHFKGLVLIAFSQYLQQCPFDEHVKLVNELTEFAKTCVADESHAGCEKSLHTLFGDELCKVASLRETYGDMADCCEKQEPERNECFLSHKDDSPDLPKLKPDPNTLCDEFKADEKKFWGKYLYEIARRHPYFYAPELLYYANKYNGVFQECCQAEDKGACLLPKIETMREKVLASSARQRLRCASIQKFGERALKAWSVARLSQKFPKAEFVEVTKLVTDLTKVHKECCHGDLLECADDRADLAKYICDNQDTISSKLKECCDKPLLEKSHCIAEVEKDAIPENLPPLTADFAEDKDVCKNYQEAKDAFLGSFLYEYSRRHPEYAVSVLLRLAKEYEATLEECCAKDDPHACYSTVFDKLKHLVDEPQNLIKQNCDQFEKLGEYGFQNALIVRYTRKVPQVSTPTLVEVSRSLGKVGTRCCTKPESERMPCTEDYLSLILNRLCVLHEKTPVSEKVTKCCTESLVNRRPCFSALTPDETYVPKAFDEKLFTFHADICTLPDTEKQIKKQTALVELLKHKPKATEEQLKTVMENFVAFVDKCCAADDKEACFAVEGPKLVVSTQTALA

B1: anti-OPN 23C3 scFv (scFv, V domains shown)
VH: EVQLVESGGGLVQPKGSLKISCAASGFTFNIYAMNWVRQAPGKGLEWVARIRSQSNNYTTYYADSVKDRFTISRDDSQSMLYLQMNNLKTEDTAMYYCVRQMGDYWGQGTTLTVSS
VL: YIQMTQSPASLSVSVGETVTITCRASENIYSFLAWYQQKQGKSPQLLVYAATNLADGVPSRFSGSGSGTQFSLKINSLQSEDFGTYYCQHFWGTPFTFGSGTKLEIK
Regarding B1, the binding result is “no binding (tested: 450 ng/mL)”.

The values above are taken from publication PMC3383883 (ACS Nano, 2012).
